These results are taken from paper PMC5787837.

The target of test [1] is commercial Protein A (Sigma-Aldrich) (Staphylococcus aureus) (UniProt P38507). The test can be described thus: QCM-D (quartz crystal microbalance with dissipation monitoring).
Test [2] addresses HFBII–Protein A fusion protein (Trichoderma reesei | Staphylococcus aureus). The test can be described thus: QCM-D (quartz crystal microbalanc). The note with it: scale: moles of rituximab per mole of immobilized HFBII–Protein A.
In test [3] the target is HFBI–Protein A fusion protein (Trichoderma reesei | Staphylococcus aureus). The test can be described thus: QCM-D (quartz crystal microbalanc). As to conditions: scale: moles of rituximab per mole of immobilized HFBI–Protein A.

For rituximab (antibody), the stoichiometry N in test [1] came out at 1.2; in test [2] it was 1.2; in test [3], 1.5.
